Measured values published in the nanobody polyreactivity screen of Harvey et al. (2022).

Test: yeast display, Sf9 membrane polyspecificity reagent, FACS + sequencing; frameworks hold sequencing errors
Method in brief: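 Synthetic nanobody libraries on Saccharomyces cerevisiae BJ5465 were galactose-induced for 36–48 hours, stained 1 hour at 4 °C with 10% biotinylated, detergent-solubilized Sf9 membrane reagent and enriched on streptavidin microbeads. FACS then separated cells into low and high (top ~1%) gates by anti-HA (expression) and streptavidin (reagent binding) fluorescence. Genes were colony-PCR amplified, MiSeq 2 × 250 sequenced and CDR-length filtered. A clone's polyreactivity label is that of its gate of origin.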

| Sequence | polyreactivity (PSR sort gate) |
| --- | --- |
| QVQLVESGGGLVQAGGSLRFSCAASGSTFGYYAMGWYRQAPGKEREMVAVITYSGGSTYYADSVKGRFTISRDNAKNTVYLQMNSLKPEDTAVYYCATDNYDWSSWAFRGYWYDYWGQGTQVTVSS | low polyreactivity |
| QVQLVESGGGLVQAGGSLRFSCAASGSTFPSYAMGWYRQAPGKERELVAAITNGGSTTYADSVKGRFTISRDNAKITDYLQMNSLKPEDTAVYYCAARYYYYYYIRRDYWGQGTQVTVSS | low polyreactivity |
| QVQLVESGGGLVQAGGSLRFSCAASGSTIPPNAMGWYRQAPGKERELVAAINSTGSTNYADSVKGRFTISRDNAKNTVSLQMNSLQPEDTAVYYCAAEGLPYVRVFDFVSRYDYWGQGTQVTVSS | low polyreactivity |
| QVQLVESGGGLVQAGGSLRFSCAASGTFVPYAMGWYRQAPGKEMELVARITWRGGSTYYADSVKGRFTISRDNAKNTVDLQLNSLKPEDTAVYYCATVSDNRYYYWGQGTQVTVSS | low polyreactivity |
| QVQLVESGGGLVQAGGSLRFSCAASRFNFYDYVMGWYRQAPGKYRELVAAISSNGGSTYYADSVKGRFTISRDNAKNTVYFQMYSLKPEDTAVYYCAVTENSKSNKIRPDQGDYWGQGTQVTVSS | high polyreactivity |
| QVQLVESGGGLVQAGGSLRFSCPASGSILTGYAMGWYRQAPGKERELVAAINFSGDNTYYADSVKGRFTISRDNAKNTVFLPMNSLKPEDTAVYYCNADGRYAYVWYDYCGQGTQVTVSS | low polyreactivity |
| QVQLVESGGGLVQAGGSLRIICAASGFIFKYYAMGWYRQAPGKERELVAAISSGGSTKYADSVKGRFTISRDNAKNTVYLQMNSLIPEDTAVYYCNADWYWKYDYWGQGTQVTVSS | high polyreactivity |
| QVQLVESGGGLVQAGGSLRIICAASGRIFSNYAMGWYRQAPGKERELVAAITYSTSRTYYADSVKGRFTISRDNAKNTVYLHMNSLKPEDTAVDYCAAGRGPYYRSRTPLYYWGQGTQVTVSS | high polyreactivity |
| QVQLVESGGGLVQAGGSLRIISAASGSTFRWYDMGWYRQAPGKEMELVAAITGSGGATYYADSVKGRFTIARDYAKNTVYLQKNRLKPEDTAVYYCAAVWWVPLAYDDYDYWGQGTQVTVSS | high polyreactivity |
| QVQLVESGGGLVQAGGSLRISCAASGFIFGGYAMGWYRQAPGKERELVAAISYSGGSTYYADSVKGRFTISRDNAKNTVYLQMNSLKPEDTAVYYCAVGYPYRYDYWGQGTQVTVSS | high polyreactivity |
| QVQLVESGGGLVQAGGSLRISCAASGFIFGPNAMGWYRQAPGKERELVAAITYSGGSTYYADSVKGRFTISRDNAKNTVYLQMNSLKPEDTAVYYCAADLYTLRYGYRYEYWGQGTQVTVSS | high polyreactivity |
| QVQLVESGGGLVQAGGSLRISCAASGFIFRSYAMGWYRQAPGKERELVAAISRSGGSTYYADSVKGRFTISRDNAKNTVYLQMNSLKPEDTAVYYCATDGGRSTARGYGHWGQGTQVTVSS | high polyreactivity |
| QVQLVESGGGLVQAGGSLRISCAASGFIIFEYDMGWYRQAPGKERDFVAAINFSGGSTYYADSEKGRFTISRDNAKNTVYLQMNSLKPEDTAVYYCAADVVRYYYTYDYWGQGTQVTVSS | low polyreactivity |
| QVQLVESGGGLVQAGGSLRISCAASGFILKDNAMGWYRQAPGKERELFAAISSGGGTYYADSEKGRFTITRDNAKNTVYLQMNSLNPEDTAVYYCNGDDLYSLNDSSEDYWGQGSQVTVSS | high polyreactivity |
| QVQLVESGGGLVQAGGSLRISCAASGFILTGYTMGWYRQAPGKERELVAAISWSGARTYYADSVKGRFTISRDNAMNTVYLQMNSLKPEDTAVYYCARDYYRPTQRYDYWGQGTQVTVSS | high polyreactivity |
| QVQLVESGGGLVQAGGSLRISCAASGFTFEDNTMGWYRQAPGKERELVAAITWGGVSTYYADSVKGRFTISRDNAKNTVYLQMNSLKPEDTAVYYCARDYDVYTVFLMDYWGQGTQVNVSS | low polyreactivity |
| QVQLVESGGGLVQAGGSLRISCAASGFTFGPYAMGWYRQAPGKERELVAAISQSGGRTSYADSVKGRFTISRDNAKNTVYLQMNSLKPEDTAVYYCAKRAYGYRSIYRMDYWGQGTQVTVSS | high polyreactivity |
